Laboratory results from patent publication US20100136573.

Biological target: Recombinant human GST-TDP-43 (N-terminal GST tag, full length), non-phosphorylated
Sequence (chain, as listed by the source): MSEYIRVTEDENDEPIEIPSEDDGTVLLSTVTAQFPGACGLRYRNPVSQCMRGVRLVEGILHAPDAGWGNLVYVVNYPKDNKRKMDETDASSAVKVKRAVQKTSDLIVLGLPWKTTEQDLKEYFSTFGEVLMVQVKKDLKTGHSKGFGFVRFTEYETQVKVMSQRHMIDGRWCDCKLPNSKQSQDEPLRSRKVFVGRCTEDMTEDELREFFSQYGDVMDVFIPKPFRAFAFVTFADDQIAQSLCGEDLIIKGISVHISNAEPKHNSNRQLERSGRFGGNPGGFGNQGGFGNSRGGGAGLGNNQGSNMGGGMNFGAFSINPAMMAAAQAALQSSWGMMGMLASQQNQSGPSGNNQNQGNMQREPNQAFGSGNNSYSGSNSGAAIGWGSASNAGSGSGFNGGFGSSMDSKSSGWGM

B1: active human recombinant caspase-3 (CHEMICON) (protein)
chain: SGISLDNSYKMDYPEMGLCIIINNKNFHKSTGMTSRSGTDVDAANLRETFRNLKYEVRNKNDLTREEIVELMRDVSKEDHSKRSSFVCVLLSHGEEGIIFGTNGPVDLKKITNFFRGDRCRSLTGKPKLFIIQACRGTELDCGIETDSGVDDDMACHKIPVEADFLYAYSTAPGYYSWRNSKDGSWFIQSLCAMLKQYADKLEFMHILTRVNRKVATEFESFSFDATFHAKKQIPCIVSMLTKELYFYH
With B1 the “in vitro cleavage, SDS-PAGE stained with Coomassie” value was “cleavage of full length TDP-43 by purified cleaved caspase-3, resulting in three distinct fragments of approximately 42, 35, and 25 kD”.
